Target: Lysine-specific demethylase 1 (human (endogenous in HEL), UniProt O60341 1-852)
Assay: affinity purification with mass spectrometry; LSD1-IP from HEL cells treated with NCD38 or DMSO; label-free quantification (Progenesis QI); binding rate change = normalized abundance in NCD38-treated cells divided by that in DMSO-treated cells, normalized to LSD1
Conditions: partners not purified

B1: GFI1B (natural protein)
chain: not shown
notes: GFI1B, human, UniProtKB Q5VTD9; source: endogenous, HEL whole-cell lysate
- binding rate after NCD38 relative to DMSO: 27%

— publication PMC5940392 (Oncotarget, 2018)
